Assay results reported in the supplement of paper PMC10567573.

B1: ZNF449 (parent)
chain: TLHQRTHTEERPFKCNYCGKSFRQ
B2: CCDC6 (parent)
chain: ASVTIQARAEQEEEFISNTLFKKI

Variants of: B1
Experiment: protein stability index of a GFP-peptide fusion (GPS, HEK-293T) (PSI 1-6); higher = more stable
Conditions: c terminus: a fixed tail appended
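Also: lentivirally expressed fusions sorted by FACS into six bins by GFP to DsRed ratio, PSI derived from sequencing read proportions per bin multiplied by bin number.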

Protein stability index of substitutions, site by site:
F13: D 2.92; R 1.69; A 2.14; T 3.78; K 2.28; Y 2.22; Q 2.92; S 2.26; C 3.05; L 2.07; N 3.54; I 3.01; M 2.18; P 2.24; G 2.79; H 1.39
E10: M 2.73; I 3.39; G 1.18; K 2.03; F 1.48; Y 2.55; S 2.1; Q 2.56; R 1.81; N 2.48; A 1.95; W 2.46; C 1.74; V 3.31; T 2.25; H 1.78; L 1.55; P 1.91
H3: K 2.89; Y 2.15; Q 2.83; L 1.85; D 2.62; G 2.4; A 2.76; P 2.66; F 2.47; V 1.98; C 3.27; W 2.82; N 2.62; M 2.25; T 2.42; R 2.82; S 2.1; I 1.99; E 2.87
L2: K 2.74; E 3.64; G 3.08; A 2.95; S 2.7; P 2.88; R 2.75; W 1.83; V 2.4; N 2.59; I 2.17; D 2.77; Y 2.64; Q 2.41; C 3.15; H 2.45; T 2.27; F 3.22; M 2.58
R5: P 2.12; A 2.44; N 1.65; Q 1.89; W 2.15; G 1.83; Y 2.4; D 2.91; M 1.76; L 2.24; T 2.45; C 4.17; V 3.27; F 1.78; K 2.77; E 3.05; I 1.97; S 2.45; H 2.73
T1: P 2.56; C 3.64; K 3.28; Y 2.01; R 2.02; V 3.17; M 2.39; W 2.01; N 2.87; F 2.08; E 2.64; G 2.89; I 2.21; Q 2.19; H 2.66; S 3.59; L 2.04; D 2.46; A 2.12
H7: G 1.97; D 2.65; R 2.48; T 2.8; Y 1.94; E 2.5; V 4.2; Q 2.88; C 2.66; I 2.37; S 2.4; K 2.27; P 2.43; W 2.88; M 2.29; A 1.65; F 2.13; N 2.12; L 2
R11: V 2.54; C 2.24; T 2.33; I 2.08; M 2.25; S 2.25; P 2.12; E 3.24; H 2.53; K 2.5; W 2.09; Y 2.11; Q 2.95; F 1.92; L 2.39; N 2.42; D 3.19; A 2.39
E9: R 2.26; V 1.76; Y 2.19; D 2.15; S 2.55; C 2.4; Q 2.72; N 1.88; I 1.8; F 1.25; A 2; L 1.2; W 1.77; G 2.97; P 1.93; H 2.71; K 3.15
Q4: R 3.24; K 2.94; N 2.75; H 1.73; V 2.38; C 3.33; P 2.92; Y 2.03; W 2.24; T 2.67; I 1.71; A 2.08; D 2.41; M 2.08; S 2.12; F 2.42; E 2.85; L 1.9; G 2.12
P12: Y 2.77; C 2.94; E 3.26; R 2.21; W 2.89; N 2.41; A 2.81; L 3.05; K 2.89; S 2.52; D 3.12; H 2.32; V 2.57; G 2.52; M 2.45; Q 2.79; T 2.26; F 2.25; I 3.29
T8: R 1.99; F 2.34; M 2.6; Q 2.69; Y 2.54; S 2.65; H 1.18; A 2.29; K 3.13; V 2.59; I 2.56; W 1.82; L 1.64; P 2.4; E 3.07; G 2.04; D 2.62; C 2.3; N 1.94
T6: D 2.56; F 1.76; H 1.55; N 2.08; Y 2.25; S 3.12; I 2.33; R 2.28; Q 2.54; C 3.06; A 2.38; W 2; E 2.67; P 1.76; G 1.85; M 2.03
K14: F 2.85; C 2.71; D 2.41

Variants of: B2
Experiment: as above
Conditions: c terminus: a fixed tail appended

Protein stability index of substitutions, site by site:
F21: D 4.87; G 4.71; T 4.49; R 4.54
F15: E 4.69; C 4.19; D 4.68; N 4.65
S2: P 4.25; A 4.01; N 3.99
E12: D 3.67; R 2.7; Y 2.2; Q 3.27
E13: I 2.18; Q 3.29; P 3.4; T 3.08
T4: D 4.17; P 4.32; K 3.29
A7: C 2.45; V 2.8; M 2.67; K 3.69; E 4.49; G 3.66; N 3.69; I 1.93; Y 2.8; L 2.12
A1: T 3.85; V 2.56; R 3.51; N 3.78; P 3.59
S17: E 3.9; C 2.8; A 3.64; Q 3.77; P 3.92
K23: C 2.96; I 2.52; N 3.37; H 3.08
I5: L 3.84; A 4.34
I24: M 3.83; P 4.25; N 4.71; T 4.76
V3: F 3.44; H 4.1; M 3.5; I 3.09
Q6: M 2.54; V 2.71; L 2.71
Q11: F 2.07; N 3.71; V 2.56
A9: T 3.68; N 3.63; D 4.42; H 3.17
N18: Y 2.07; G 3.6; C 2.79; M 2.34; Q 3.42
R8: L 3.03; F 2.59; E 4.55; A 3.79; I 2.98
K22: H 3.5; Q 3.7; F 1.94; N 3.98; W 2.1
E14: P 3.01; A 3.13; W 1.81; F 1.87
L20: E 4.51; C 3.9; I 3.89; Q 4.62
T19: K 3.72; W 3.13
E10: I 2.39; C 2.1; R 2.95
